Test results from EP4660201A1 (dated 2025).
Numbering of substitutions follows the chain as printed.

Legend:
[1] = target: KRAS G12V 7-16 epitope peptide … presented by HLA-A*11:01 (human); assay: cell-based or functional assay
[2] = target: T1, KRAS G12V 7-16, P6I peptide on HLA-A*11:01 (human); assay: cytokine release
T1 peptide: VVVGAIGVGK

[3] = target: T2, KRAS G12V 7-16, P6L peptide on HLA-A*11:01 (human); assay: cytokine release
T2 peptide: VVVGALGVGK

[4] = target: T3, KRAS G12V 7-16, P7A peptide on HLA-A*11:01 (human); assay: cytokine release
T3 peptide: VVVGAVAVGK

[5] = target: T4, KRAS G12V 7-16, P7Q peptide on HLA-A*11:01 (human); assay: cytokine release
T4 peptide: VVVGAVQVGK

[6] = target: T5, KRAS G12V 7-16, P8C peptide on HLA-A*11:01 (human); assay: cytokine release
T5 peptide: VVVGAVGCGK

[7] = target: T6, KRAS G12V 7-16, P8I peptide on HLA-A*11:01 (human); assay: cytokine release
T6 peptide: VVVGAVGIGK

[8] = target: T7, KRAS G12V 7-16, P8T peptide on HLA-A*11:01 (human); assay: cytokine release
T7 peptide: VVVGAVGTGK

[9] = target: T8, KRAS G12V 7-16, P1T peptide on HLA-A*11:01 (human); assay: cytokine release
T8 peptide: TVVGAVGVGK

[10] = target: T9, KRAS G12V 7-16, P2I peptide on HLA-A*11:01 (human); assay: cytokine release
T9 peptide: VIVGAVGVGK

[11] = target: T10, KRAS G12V 7-16, P3A peptide on HLA-A*11:01 (human); assay: cytokine release
T10 peptide: VVAGAVGVGK

[12] = target: T11, KRAS G12V 7-16, P3G peptide on HLA-A*11:01 (human); assay: cytokine release
T11 peptide: VVGGAVGVGK

[13] = target: T12, KRAS G12V 7-16, P3I peptide on HLA-A*11:01 (human); assay: cytokine release
T12 peptide: VVIGAVGVGK

[14] = target: T13, KRAS G12V 7-16, P5C peptide on HLA-A*11:01 (human); assay: cytokine release
T13 peptide: VVVGCVGVGK

[15] = target: T14, KRAS G12V 7-16, P5S peptide on HLA-A*11:01 (human); assay: cytokine release
T14 peptide: VVVGSVGVGK

[16] = target: T15, KRAS G12V peptide on HLA-A*11:01 (human); assay: IFN-gamma ELISA; TCR-T cells with T2KO-A1101 cells loaded with 1e-5 to 1e-11 M peptide, E:T 1:1, 20 h; Figure 6C; full-length, on cells
T15 peptide: VVVGAVGVGK

[17] = target: T15, KRAS G12V peptide on HLA-A*11:01; assay: NFAT-GFP reporter in Jurkat (endogenous TCR knocked out); T2 cells loaded with 1e-5 to 1e-9 M target antigen peptide; full-length, on cells
[18] = target: T15, KRAS G12V peptide on HLA-A*11:01; assay: luciferase killing assay; TCR-T cells with T2KO-A1101 cells loaded with 1e-5 to 1e-11 M peptide, E:T 9:1, 20 h; Figure 5C; full-length, on cells
[19] = target: KRAS G12D 7-16 epitope peptide … presented by HLA-A*11:01 (human); assay: cell-based or functional assay
[20] = target: T16, KRAS G12D peptide on HLA-A*11:01 (human); assay: IFN-gamma ELISA; TCR-T cells with T2KO-A1101 cells loaded with 1e-5 to 1e-11 M peptide, E:T 1:1, 20 h; Figure 6D; full-length, on cells
T16 peptide: VVVGADGVGK

[21] = target: T16, KRAS G12D peptide on HLA-A*11:01; assay: NFAT-GFP reporter in Jurkat (endogenous TCR knocked out); T2 cells loaded with 1e-5 to 1e-9 M target antigen peptide; full-length, on cells
[22] = target: T17, KRAS G12V 7-16, P5T peptide on HLA-A*11:01 (human); assay: cytokine release
T17 peptide: VVVGTVGVGK

[23] = target: T18, KRAS G12V 7-16, P5V peptide on HLA-A*11:01 (human); assay: cytokine release
T18 peptide: VVVGVVGVGK

[24] = target: T19, KRAS G12V 7-16, P8F peptide on HLA-A*11:01 (human); assay: cytokine release
T19 peptide: VVVGAVGFGK

[25] = target: T20, KRAS G12V 7-16, P8G peptide on HLA-A*11:01 (human); assay: cytokine release
T20 peptide: VVVGAVGGGK

[26] = target: T21, KRAS G12V 7-16, P8L peptide on HLA-A*11:01 (human); assay: cytokine release
T21 peptide: VVVGAVGLGK

[27] = target: T22, KRAS G12V 7-16, P9A peptide on HLA-A*11:01 (human); assay: cytokine release
T22 peptide: VVVGAVGVAK

[28] = target: T23, KRAS G12V 7-16, P9D peptide on HLA-A*11:01 (human); assay: cytokine release
T23 peptide: VVVGAVGVDK

[29] = target: T24, KRAS G12V 7-16, P9N peptide on HLA-A*11:01 (human); assay: cytokine release
T24 peptide: VVVGAVGVNK

[30] = target: T25, KRAS G12V 7-16, P9Q peptide on HLA-A*11:01 (human); assay: cytokine release
T25 peptide: VVVGAVGVQK

[31] = target: T26, KRAS G12V 7-16, P9S peptide on HLA-A*11:01 (human); assay: cytokine release
T26 peptide: VVVGAVGVSK

[32] = target: T27, KRAS G12V 7-16, P3C peptide on HLA-A*11:01 (human); assay: cytokine release
T27 peptide: VVCGAVGVGK

[33] = target: T28, KRAS G12V 7-16, P3E peptide on HLA-A*11:01 (human); assay: cytokine release
T28 peptide: VVEGAVGVGK

[34] = target: T29, KRAS G12V 7-16, P3M peptide on HLA-A*11:01 (human); assay: cytokine release
T29 peptide: VVMGAVGVGK

[35] = target: T30, KRAS G12V 7-16, P3Q peptide on HLA-A*11:01 (human); assay: cytokine release
T30 peptide: VVQGAVGVGK

[36] = target: T31, KRAS G12V 7-16, P3S peptide on HLA-A*11:01 (human); assay: cytokine release
T31 peptide: VVSGAVGVGK

[37] = target: T32, KRAS G12V 7-16, P1A peptide on HLA-A*11:01 (human); assay: cytokine release
T32 peptide: AVVGAVGVGK

[38] = target: T33, KRAS G12V 7-16, P5P peptide on HLA-A*11:01 (human); assay: cytokine release
T33 peptide: VVVGPVGVGK

B1: KVA11-N04 (TCR, V domains shown)
Valpha: GESVGLHLPTLGVQEGDNSIINCAYSNSASDYFIWYKQESGKGPQFIIDIRSNMDKRQGQRVTVLLNKTVKHLSLQIAATQPGDSAVYFCAENSDGTSYGKLTFGQGTILTVHP
Vbeta: EAGVAQSPRYKIIEKRQSVAFWCNPISGHATLYWYQQILGQGPKLLIQFQNNGVVDDSQLPKDRFSAERLKGVDSTLKIQPAKLEDSAVYLCASSLVGSPDYEQYFGPGTRLTVT
EC50 of IFN-γ secretion with peptide-loaded T2KO-A1101 cells (ELISA, E:T 1:1, 20 hours) [1]: 22 nM
EC50 of NFAT-GFP reporter activation, TCR in Jurkat-NFAT cells with peptide-loaded T2 cells [1]: 28.9 nM
EC50 of killing of peptide-loaded T2KO-A1101 cells (luciferase, E:T 9:1, 20 hours) [1]: 0.973 nM
binding result [2]: recognises
binding result [3]: recognises
binding result [4]: recognises
binding result [5]: recognises
binding result [6]: recognises
binding result [7]: recognises
binding result [8]: recognises
binding result [9]: recognises
binding result [10]: recognises
binding result [11]: recognises
binding result [12]: recognises
binding result [13]: recognises
binding result [14]: recognises
binding result [15]: recognises
EC50 of peptide [16]: 22 nM
EC50 of peptide [17]: 28.9 nM
EC50 of peptide [18]: 0.973 nM

B2: KDA11-N01 (TCR, V domains shown)
Valpha: QKEVEQNSGPLSVPEGAIASLNCTYSDRGSQSFFWYRQYSGKSPELIMSIYSNGDKEDGRFTAQLNKASQYVSLLIRDSQPSDSATYLCAVNLGAAGNKLTFGGGTRVLVKP
Vbeta: B1 Vbeta with L96F, V97S, G98D, P100Y, D101N, Y102S, E103P, Q104L, Y105H, P108N
EC50 of IFN-γ secretion with peptide-loaded T2KO-A1101 cells (ELISA, E:T 1:1, 20 hours) [19]: 49.6 nM
EC50 of NFAT-GFP reporter activation, TCR in Jurkat-NFAT cells with peptide-loaded T2 cells [19]: 76.5 nM
EC50 of peptide [20]: 49.6 nM
EC50 of peptide [21]: 76.5 nM

B3: KVA11-N02 (TCR, V domains shown)
Valpha: AQSVAQPEDQVNVAEGNPLTVKCTYSVSGNPYLFWYVQYPNRGLQFLLKYITGDNLVKGSYGFEAEFNKSQTSFHLKKPSALVSDSALYFCAVRDIEGAGNNRKLIWGLGTSLAVNP
Vbeta: DAGVIQSPRHEVTEMGQEVTLRCKPISGHNSLFWYRQTMMRGLELLIYFNNNVPIDDSGMPEDRFSAKMPNASFSTLKIQPSEPRDSAVYFCASSEGFYTEAFFGQGTRLTVV
binding result [22]: recognises
binding result [23]: recognises
binding result [2]: recognises
binding result [24]: recognises
binding result [25]: recognises
binding result [7]: recognises
binding result [26]: recognises
binding result [27]: recognises
binding result [28]: recognises
binding result [29]: recognises
binding result [30]: recognises
binding result [31]: recognises
binding result [10]: recognises
binding result [11]: recognises
binding result [32]: recognises
binding result [33]: recognises
binding result [12]: recognises
binding result [13]: recognises
binding result [34]: recognises
binding result [35]: recognises
binding result [36]: recognises
binding result [14]: recognises
binding result [37]: recognises
binding result [38]: recognises
binding result [15]: recognises
